Laboratory results as given in patent US20110086019A1 (DOMANTIS, published 2011).

Key:
[1] = molecular target: human TNFR1 (soluble recombinant protein) (human) (UniProt P19438); assay: phage ELISA on plate coated with 1 nM TNFR1, anti-M13-HRP; 0 µg/ml trypsin; phage input 4.51E+10
[2] = molecular target: human TNFR1 (soluble recombinant protein) (human) (UniProt P19438); assay: phage ELISA on plate coated with 1 nM TNFR1, anti-M13-HRP; phage treated 1 h at room temperature with 1 mg/ml trypsin; phage input 2.26E+10
[3] = molecular target: human TNFR1 (soluble recombinant protein) (human) (UniProt P19438); assay: phage ELISA on plate coated with 1 nM TNFR1, anti-M13-HRP; phage treated 1 h at room temperature with 1 mg/ml trypsin; phage input 7.05E+08
[4] = molecular target: human TNFR1 (soluble recombinant protein) (human) (UniProt P19438); assay: phage ELISA on plate coated with 1 nM TNFR1, anti-M13-HRP; phage treated 1 h at room temperature with 100 µg/ml trypsin; phage input 4.51E+10
[5] = molecular target: human TNFR1 (soluble recombinant protein) (human) (UniProt P19438); assay: phage ELISA on plate coated with 1 nM TNFR1, anti-M13-HRP; phage treated 1 h at room temperature with 1 mg/ml trypsin; phage input 1.13E+10
[6] = molecular target: human TNFR1 (soluble recombinant protein) (human) (UniProt P19438); assay: phage ELISA on plate coated with 1 nM TNFR1, anti-M13-HRP; phage treated 1 h at room temperature with 1 mg/ml trypsin; phage input 1.41E+09
[7] = molecular target: human TNFR1 (soluble recombinant protein) (human) (UniProt P19438); assay: phage ELISA on plate coated with 1 nM TNFR1, anti-M13-HRP; phage treated 1 h at room temperature with 1 mg/ml trypsin; phage input 4.51E+10
[8] = molecular target: human TNFR1 (soluble recombinant protein) (human) (UniProt P19438); assay: phage ELISA on plate coated with 1 nM TNFR1, anti-M13-HRP; phage treated 1 h at room temperature with 10 µg/ml trypsin; phage input 2.82E+09
[9] = molecular target: human TNFR1 (soluble recombinant protein) (human) (UniProt P19438); assay: phage ELISA on plate coated with 1 nM TNFR1, anti-M13-HRP; phage treated 1 h at room temperature with 100 µg/ml trypsin; phage input 2.82E+09
[10] = molecular target: human TNFR1 (soluble recombinant protein) (human) (UniProt P19438); assay: phage ELISA on plate coated with 1 nM TNFR1, anti-M13-HRP; phage treated 1 h at room temperature with 100 µg/ml trypsin; phage input 7.05E+08
[11] = molecular target: human TNFR1 (soluble recombinant protein) (human) (UniProt P19438); assay: phage ELISA on plate coated with 1 nM TNFR1, anti-M13-HRP; 0 µg/ml trypsin; phage input 5.64E+09
[12] = molecular target: human TNFR1 (soluble recombinant protein) (human) (UniProt P19438); assay: phage ELISA on plate coated with 1 nM TNFR1, anti-M13-HRP; phage treated 1 h at room temperature with 1 mg/ml trypsin; phage input 5.64E+09
[13] = molecular target: human TNFR1 (soluble recombinant protein) (human) (UniProt P19438); assay: phage ELISA on plate coated with 1 nM TNFR1, anti-M13-HRP; phage treated 1 h at room temperature with 10 µg/ml trypsin; phage input 5.64E+09
[14] = molecular target: human TNFR1 (soluble recombinant protein) (human) (UniProt P19438); assay: phage ELISA on plate coated with 1 nM TNFR1, anti-M13-HRP; phage treated 1 h at room temperature with 1 mg/ml trypsin; phage input 2.82E+09
[15] = molecular target: human TNFR1 (soluble recombinant protein) (human) (UniProt P19438); assay: phage ELISA on plate coated with 1 nM TNFR1, anti-M13-HRP; phage treated 1 h at room temperature with 10 µg/ml trypsin; phage input 7.05E+08
[16] = molecular target: human TNFR1 (soluble recombinant protein) (human) (UniProt P19438); assay: phage ELISA on plate coated with 1 nM TNFR1, anti-M13-HRP; 0 µg/ml trypsin; phage input 7.05E+08
[17] = molecular target: human TNFR1 (soluble recombinant protein) (human) (UniProt P19438); assay: phage ELISA on plate coated with 1 nM TNFR1, anti-M13-HRP; 0 µg/ml trypsin; phage input 3.52E+08
[18] = molecular target: human TNFR1 (soluble recombinant protein) (human) (UniProt P19438); assay: phage ELISA on plate coated with 1 nM TNFR1, anti-M13-HRP; phage treated 1 h at room temperature with 10 µg/ml trypsin; phage input 1.13E+10
[19] = molecular target: human TNFR1 (soluble recombinant protein) (human) (UniProt P19438); assay: phage ELISA on plate coated with 1 nM TNFR1, anti-M13-HRP; 0 µg/ml trypsin; phage input 2.26E+10
[20] = molecular target: human TNFR1 (soluble recombinant protein) (human) (UniProt P19438); assay: phage ELISA on plate coated with 1 nM TNFR1, anti-M13-HRP; 0 µg/ml trypsin; phage input 1.13E+10
[21] = molecular target: human TNFR1 (soluble recombinant protein) (human) (UniProt P19438); assay: phage ELISA on plate coated with 1 nM TNFR1, anti-M13-HRP; phage treated 1 h at room temperature with 100 µg/ml trypsin; phage input 1.13E+10
[22] = molecular target: human TNFR1 (soluble recombinant protein) (human) (UniProt P19438); assay: phage ELISA on plate coated with 1 nM TNFR1, anti-M13-HRP; phage treated 1 h at room temperature with 10 µg/ml trypsin; phage input 2.26E+10
[23] = molecular target: human TNFR1 (soluble recombinant protein) (human) (UniProt P19438); assay: phage ELISA on plate coated with 1 nM TNFR1, anti-M13-HRP; phage treated 1 h at room temperature with 10 µg/ml trypsin; phage input 4.51E+10
[24] = molecular target: human TNFR1 (soluble recombinant protein) (human) (UniProt P19438); assay: phage ELISA on plate coated with 1 nM TNFR1, anti-M13-HRP; phage treated 1 h at room temperature with 100 µg/ml trypsin; phage input 1.41E+09
[25] = molecular target: human TNFR1 (soluble recombinant protein) (human) (UniProt P19438); assay: phage ELISA on plate coated with 1 nM TNFR1, anti-M13-HRP; phage treated 1 h at room temperature with 1 mg/ml trypsin; phage input 3.52E+08
[26] = molecular target: human TNFR1 (soluble recombinant protein) (human) (UniProt P19438); assay: phage ELISA on plate coated with 1 nM TNFR1, anti-M13-HRP; 0 µg/ml trypsin; phage input 1.41E+09
[27] = molecular target: human TNFR1 (soluble recombinant protein) (human) (UniProt P19438); assay: phage ELISA on plate coated with 1 nM TNFR1, anti-M13-HRP; phage treated 1 h at room temperature with 10 µg/ml trypsin; phage input 3.52E+08
[28] = molecular target: human TNFR1 (soluble recombinant protein) (human) (UniProt P19438); assay: phage ELISA on plate coated with 1 nM TNFR1, anti-M13-HRP; phage treated 1 h at room temperature with 10 µg/ml trypsin; phage input 1.41E+09
[29] = molecular target: human TNFR1 (soluble recombinant protein) (human) (UniProt P19438); assay: phage ELISA on plate coated with 1 nM TNFR1, anti-M13-HRP; phage treated 1 h at room temperature with 100 µg/ml trypsin; phage input 2.26E+10
[30] = molecular target: human TNFR1 (soluble recombinant protein) (human) (UniProt P19438); assay: phage ELISA on plate coated with 1 nM TNFR1, anti-M13-HRP; phage treated 1 h at room temperature with 100 µg/ml trypsin; phage input 3.52E+08
[31] = molecular target: human TNFR1 (soluble recombinant protein) (human) (UniProt P19438); assay: phage ELISA on plate coated with 1 nM TNFR1, anti-M13-HRP; 0 µg/ml trypsin; phage input 2.82E+09
[32] = molecular target: human TNFR1 (soluble recombinant protein) (human) (UniProt P19438); assay: phage ELISA on plate coated with 1 nM TNFR1, anti-M13-HRP; phage treated 1 h at room temperature with 100 µg/ml trypsin; phage input 5.64E+09
TNFR1-FC fusion = molecular target: T1, TNFR1-FC fusion (human, UniProt P19438 22-211); assay: human TNFR1 receptor binding assay: inhibition of the binding of TNF-alpha (10 ng/ml) to bead-captured TNFR1-Fc; four replicates
T1 construct: not shown: Fc part not described (captured with goat anti-human IgG (H&L))
T1 sequence (looked up): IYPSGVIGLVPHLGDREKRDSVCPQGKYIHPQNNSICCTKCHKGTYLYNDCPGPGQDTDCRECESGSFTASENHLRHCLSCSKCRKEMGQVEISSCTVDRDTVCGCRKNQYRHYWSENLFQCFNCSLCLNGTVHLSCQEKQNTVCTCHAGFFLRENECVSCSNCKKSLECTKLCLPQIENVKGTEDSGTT

DOM1h-131 phage showed a phage ELISA signal [1] of 0.916, a phage ELISA signal [2] of 0.229 and a phage ELISA signal [3] of 0.084. The phage ELISA signal [4] was 0.418, the phage ELISA signal [5] was 0.183 and the phage ELISA signal [6] was 0.089. The phage ELISA signal [7] was 0.284, the phage ELISA signal [8] was 0.573 and the phage ELISA signal [9] was 0.141. The phage ELISA signal [10] was 0.084, the phage ELISA signal [11] was 0.962 and the phage ELISA signal [12] was 0.133. For the same molecule, the phage ELISA signal [13] was 0.695, the phage ELISA signal [14] was 0.114 and the phage ELISA signal [15] was 0.286. The phage ELISA signal [16] was 0.705, the phage ELISA signal [17] was 0.577 and the phage ELISA signal [18] was 0.86. For the same molecule, the phage ELISA signal [19] was 0.944, the phage ELISA signal [20] was 0.949 and the phage ELISA signal [21] was 0.284. For the same molecule, the phage ELISA signal [22] was 0.802, the phage ELISA signal [23] was 0.784 and the phage ELISA signal [24] was 0.115. For the same molecule, the phage ELISA signal [25] was 0.08, the phage ELISA signal [26] was 0.85 and the phage ELISA signal [27] was 0.213. The phage ELISA signal [28] was 0.409, the phage ELISA signal [29] was 0.377 and the phage ELISA signal [30] was 0.084. For the same molecule, the phage ELISA signal [31] was 0.946 and the phage ELISA signal [32] was 0.196.

B1: DOM1h-131-202 (other)
VH: EVQLLESGGGLVQPGGSLRLSCAASGFTFAHETMVWVRQAPGKGLEWVSHIPPDGQDPFYADSVKGRFTISRDNSKNTLYLQMNSLRAEDTAVYYCALLPKRGPWFDYWGQGTLVTVSS
notes: also called GSK1922567A
With B1 the “IC50 (read off the curve)” value (TNFR1-FC fusion) was roughly 0.2 nM.
